Experimental data taken from patent US20260116925A1 (ARIZONA BOARD OF REGENTS ON BEHALF OF ARIZONA STATE …, published 2026).

Biological target: T1, Cathepsin G
T1 sequence (P08311 21-244, species assumed, looked up): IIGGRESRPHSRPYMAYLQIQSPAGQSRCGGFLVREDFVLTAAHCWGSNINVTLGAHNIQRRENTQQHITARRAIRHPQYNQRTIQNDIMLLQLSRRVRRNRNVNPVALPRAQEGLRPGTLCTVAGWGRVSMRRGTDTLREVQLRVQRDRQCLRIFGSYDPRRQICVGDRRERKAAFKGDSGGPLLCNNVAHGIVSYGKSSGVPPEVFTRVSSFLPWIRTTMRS
Assay: cell-based or functional assay

inhibitory stoichiometry (A/A0 (405 nm) vs. time): 1 inhibitor:enzyme ratio
B1: recombinant Serpinb3a (mouse-derived), 6×His-tagged, produced in E. coli (other)
chain: HHHHHHMHLFAEATTKFTLELYRQLRESDNNIFYSPISMMTALAMLQLGAKGNTEKQIEKVLQFNETTKKTTEKSAHCHDEENVHEQFQKLMTQLNKSNDAYDLKAANSIYGAKGFPFVQTFLEDIKEYYQANVESLDFEHAAEESEKKINSWVESQTNGKIKDLFPNGSLNRSTIMVLVNAVYFKGQWNHKFDEKHTTEEKFWLNKNTSKPVQMMKQNIEFNFMFLEDVQAKIVEIPYKGKELSMIVLLPVEINGLKQLEEQLTADKLLEWTRAENMHMTELYLSLPRFKVDEKYDLPIPLEHMGMVDAFDPQKADFSGMSSTQGLVVSKVLHKSFVEVNEEGTEAAAATGVEVSLTSAQIAEDFCCDHPFLFFIIHRKTNSILFFGRISSP
